Target: CD91 (human (endogenous in PBMCs)) (UniProt Q07954)
Sequence of UniProt Q07954 (Q07954 20-4544): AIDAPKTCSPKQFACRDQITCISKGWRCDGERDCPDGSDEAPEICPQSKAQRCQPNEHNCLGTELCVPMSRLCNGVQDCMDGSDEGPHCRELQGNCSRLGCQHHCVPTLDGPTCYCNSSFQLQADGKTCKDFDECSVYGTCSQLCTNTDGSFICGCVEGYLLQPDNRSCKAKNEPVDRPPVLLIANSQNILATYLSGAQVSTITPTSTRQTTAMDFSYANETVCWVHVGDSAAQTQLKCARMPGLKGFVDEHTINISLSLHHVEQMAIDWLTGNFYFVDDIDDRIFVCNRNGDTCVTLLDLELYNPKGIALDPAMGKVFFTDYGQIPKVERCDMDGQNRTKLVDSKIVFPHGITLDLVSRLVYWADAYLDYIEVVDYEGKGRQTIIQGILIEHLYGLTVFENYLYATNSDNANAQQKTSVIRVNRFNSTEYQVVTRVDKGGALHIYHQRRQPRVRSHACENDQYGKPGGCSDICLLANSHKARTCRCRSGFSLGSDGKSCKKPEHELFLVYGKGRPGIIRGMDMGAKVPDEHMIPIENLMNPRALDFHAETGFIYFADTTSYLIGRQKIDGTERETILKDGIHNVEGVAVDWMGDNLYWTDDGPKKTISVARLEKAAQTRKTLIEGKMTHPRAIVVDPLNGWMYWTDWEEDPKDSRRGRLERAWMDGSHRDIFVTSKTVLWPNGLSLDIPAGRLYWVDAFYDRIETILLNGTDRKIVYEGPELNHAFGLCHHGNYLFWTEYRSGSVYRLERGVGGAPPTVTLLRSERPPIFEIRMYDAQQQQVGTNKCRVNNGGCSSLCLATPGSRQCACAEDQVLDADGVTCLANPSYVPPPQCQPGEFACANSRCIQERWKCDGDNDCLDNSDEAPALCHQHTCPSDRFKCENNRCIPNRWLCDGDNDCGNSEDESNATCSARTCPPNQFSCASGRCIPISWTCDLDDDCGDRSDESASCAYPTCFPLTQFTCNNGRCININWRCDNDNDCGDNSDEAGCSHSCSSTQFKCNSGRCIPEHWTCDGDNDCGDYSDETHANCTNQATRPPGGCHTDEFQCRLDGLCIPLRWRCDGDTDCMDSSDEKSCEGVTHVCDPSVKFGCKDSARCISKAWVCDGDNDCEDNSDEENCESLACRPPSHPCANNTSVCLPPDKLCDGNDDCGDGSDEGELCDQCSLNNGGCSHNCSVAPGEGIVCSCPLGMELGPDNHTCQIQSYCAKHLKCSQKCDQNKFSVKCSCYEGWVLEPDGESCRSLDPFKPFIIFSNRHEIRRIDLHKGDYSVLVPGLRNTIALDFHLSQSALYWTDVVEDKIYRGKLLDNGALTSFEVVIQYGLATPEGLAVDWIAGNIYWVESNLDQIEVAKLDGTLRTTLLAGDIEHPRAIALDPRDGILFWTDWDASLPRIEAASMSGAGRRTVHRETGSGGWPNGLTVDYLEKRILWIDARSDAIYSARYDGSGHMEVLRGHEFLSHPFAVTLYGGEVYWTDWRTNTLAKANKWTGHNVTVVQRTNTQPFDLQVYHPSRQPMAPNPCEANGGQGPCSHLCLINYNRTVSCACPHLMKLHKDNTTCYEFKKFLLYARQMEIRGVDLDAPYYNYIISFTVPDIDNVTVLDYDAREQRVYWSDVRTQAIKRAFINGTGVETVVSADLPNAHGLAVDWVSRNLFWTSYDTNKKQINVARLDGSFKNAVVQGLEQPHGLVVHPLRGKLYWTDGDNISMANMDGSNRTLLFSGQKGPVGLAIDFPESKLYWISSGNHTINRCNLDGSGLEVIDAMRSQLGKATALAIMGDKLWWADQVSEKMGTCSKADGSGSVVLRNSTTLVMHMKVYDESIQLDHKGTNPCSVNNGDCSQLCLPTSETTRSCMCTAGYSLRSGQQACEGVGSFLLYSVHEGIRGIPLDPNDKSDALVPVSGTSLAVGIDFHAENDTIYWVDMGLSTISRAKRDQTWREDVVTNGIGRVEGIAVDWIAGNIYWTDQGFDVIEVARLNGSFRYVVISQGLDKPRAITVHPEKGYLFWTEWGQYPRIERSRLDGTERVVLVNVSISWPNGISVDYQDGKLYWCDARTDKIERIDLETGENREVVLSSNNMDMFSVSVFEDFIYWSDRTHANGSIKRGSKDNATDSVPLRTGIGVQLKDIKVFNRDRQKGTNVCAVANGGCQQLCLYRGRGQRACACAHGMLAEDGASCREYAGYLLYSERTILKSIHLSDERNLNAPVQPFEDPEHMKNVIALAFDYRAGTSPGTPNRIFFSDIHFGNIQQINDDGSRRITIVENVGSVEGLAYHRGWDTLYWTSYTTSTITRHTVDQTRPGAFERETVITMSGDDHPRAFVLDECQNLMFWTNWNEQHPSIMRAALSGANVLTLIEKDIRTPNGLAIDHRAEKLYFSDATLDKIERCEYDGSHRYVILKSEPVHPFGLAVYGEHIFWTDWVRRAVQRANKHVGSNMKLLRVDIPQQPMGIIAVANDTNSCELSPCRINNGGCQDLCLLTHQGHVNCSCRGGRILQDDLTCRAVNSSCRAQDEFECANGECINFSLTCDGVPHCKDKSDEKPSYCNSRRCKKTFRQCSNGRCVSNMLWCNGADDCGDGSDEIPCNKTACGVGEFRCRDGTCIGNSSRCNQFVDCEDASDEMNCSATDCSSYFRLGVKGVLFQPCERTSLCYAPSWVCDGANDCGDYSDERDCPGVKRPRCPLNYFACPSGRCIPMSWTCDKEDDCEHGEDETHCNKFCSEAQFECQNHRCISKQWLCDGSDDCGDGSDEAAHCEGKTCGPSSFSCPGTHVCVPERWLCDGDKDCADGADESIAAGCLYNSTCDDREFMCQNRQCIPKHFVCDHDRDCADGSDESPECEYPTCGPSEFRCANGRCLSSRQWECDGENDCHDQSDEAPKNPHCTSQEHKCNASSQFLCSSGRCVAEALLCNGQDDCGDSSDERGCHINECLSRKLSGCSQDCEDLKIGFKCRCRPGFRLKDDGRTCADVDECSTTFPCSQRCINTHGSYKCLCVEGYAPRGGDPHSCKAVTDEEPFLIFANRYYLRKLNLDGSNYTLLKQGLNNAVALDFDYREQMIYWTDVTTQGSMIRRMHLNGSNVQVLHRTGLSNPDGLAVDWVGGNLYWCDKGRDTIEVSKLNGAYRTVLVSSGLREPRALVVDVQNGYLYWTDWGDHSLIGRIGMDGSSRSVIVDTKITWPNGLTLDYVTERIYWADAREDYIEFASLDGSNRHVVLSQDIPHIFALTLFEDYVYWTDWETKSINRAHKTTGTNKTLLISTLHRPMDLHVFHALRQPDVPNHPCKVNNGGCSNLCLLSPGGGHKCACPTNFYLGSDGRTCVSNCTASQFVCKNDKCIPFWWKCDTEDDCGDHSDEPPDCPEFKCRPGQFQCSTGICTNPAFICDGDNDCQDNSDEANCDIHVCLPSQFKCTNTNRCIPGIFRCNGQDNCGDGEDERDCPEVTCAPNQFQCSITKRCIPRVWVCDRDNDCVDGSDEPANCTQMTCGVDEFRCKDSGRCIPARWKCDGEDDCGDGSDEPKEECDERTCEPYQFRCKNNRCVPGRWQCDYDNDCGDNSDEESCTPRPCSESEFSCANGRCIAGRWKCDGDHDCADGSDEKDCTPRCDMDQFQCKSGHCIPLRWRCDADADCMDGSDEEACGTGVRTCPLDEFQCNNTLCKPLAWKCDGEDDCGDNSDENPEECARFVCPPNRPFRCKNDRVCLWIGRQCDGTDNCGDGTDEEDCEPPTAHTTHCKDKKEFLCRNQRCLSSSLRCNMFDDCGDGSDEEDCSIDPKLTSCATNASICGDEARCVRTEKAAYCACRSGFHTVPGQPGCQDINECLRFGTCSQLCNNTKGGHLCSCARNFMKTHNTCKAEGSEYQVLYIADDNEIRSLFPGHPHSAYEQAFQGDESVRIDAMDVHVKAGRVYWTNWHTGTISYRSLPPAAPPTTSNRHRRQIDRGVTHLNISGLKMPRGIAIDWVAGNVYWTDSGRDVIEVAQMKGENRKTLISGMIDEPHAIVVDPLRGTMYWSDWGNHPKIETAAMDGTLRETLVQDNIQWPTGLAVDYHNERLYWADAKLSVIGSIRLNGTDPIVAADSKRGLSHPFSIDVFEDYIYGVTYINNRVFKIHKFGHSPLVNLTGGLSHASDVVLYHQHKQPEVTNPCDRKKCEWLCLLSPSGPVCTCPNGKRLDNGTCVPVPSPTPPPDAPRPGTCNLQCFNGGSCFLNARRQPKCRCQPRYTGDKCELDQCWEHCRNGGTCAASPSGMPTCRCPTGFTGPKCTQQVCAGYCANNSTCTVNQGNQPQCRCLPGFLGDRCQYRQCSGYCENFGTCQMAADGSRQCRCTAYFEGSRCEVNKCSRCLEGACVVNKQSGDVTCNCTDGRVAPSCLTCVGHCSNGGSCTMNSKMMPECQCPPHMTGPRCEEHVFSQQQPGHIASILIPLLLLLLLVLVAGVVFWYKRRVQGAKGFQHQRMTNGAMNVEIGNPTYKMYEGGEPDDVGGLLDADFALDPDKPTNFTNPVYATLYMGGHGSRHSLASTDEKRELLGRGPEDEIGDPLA

**Q.** With “HSP70/CMVpp65(495-503)-peptide complex (from UniProt P0DMV8 1-641)” as the substance, how does the reduction of proliferation of CD8+ T cells (CFSE dilution, 4 days) in PBMCs stimulated with 10 μg/ml HSP70/CMV-PC after 1 h pulse with 500 μg/ml α2-macroglobulin (A2M), the natural ligand of CD91 read?
**A.** Its reduction of proliferation of CD8+ T cells (CFSE dilution, 4 days) in PBMCs stimulated with 10 μg/ml HSP70/CMV-PC after 1 h pulse with 500 μg/ml α2-macroglobulin (A2M), the natural ligand of CD91 is 86.9%.
